Assay results: patent publication US20080249004A1

Target: NCAM Ig1-2-3 fragment (recombinant rat NCAM residues 1-289, deglycosylated) (rat)
Test: dynamic light scattering, 4 mg/ml in PBS pH 7.4, 18 C; self-association

NCAM Ig1-2-3 fragment (recombinant rat NCAM residues 1-289, deglycosylated) (from UniProt P13595 20-308)
molecular weight in solution (DLS): 78 kDa
